{
  "source": "the RNAGym collection of RNA variant scans (doi:10.7554/elife.90254)",
  "parents": {"B1": {"name": "LINE1-full (parent)", "chain": "UACGUAGGUGGUUUUCCCCUGAUAGUGCUAAGGGGGCCUGGAAGUUUGGACUGGGCAGAGCUCAACACAGCGUGGCAAAGUGGCUGUGGCUAGACUGCCUCUCUGGAUUCCUCGUCACUCAGCAGGGCAUCUCUGAGAGAAAUGCC"}},
  "data": [
    {"variants_of": "B1", "test": "self-cleavage, relative activity (ratio to wild type); higher = more cleavage; in vitro, sequencing; the parent is a self-cleaving ribozyme", "values": [
      {"variant": "UACGUAGGUGGUUUUCCCCUGAUAGUGCUAAGGGGGCCAGGAAGUUUGGACUGGGCAGAGCUCAACACAGCGUGGCAAAGUGGCUGUGGCUAGGCUGCCUCUCUGGAUUCCUCGUCACUCAGCAGGGCAUCUCUGAGAGAAAUGCC", "self-cleavage": 0.36},
      {"variant": "UACGUAGGUGGUUUUCCCCUGAUAGUGCUAAGGGGGCCAGGAAGUUUGGACUGGGCAGAGCUCAACACAGCGUGGCAAAGUGGCUGUGGCUAGACUGCCUCUCUGGAUUCCUCGUCACUCAGCGGGGCAUCUCUGAGAGAAAUGCC", "self-cleavage": 0.97},
      {"variant": "UACGUAGGUGGUUUUCCCCUGAUAGUGCUAAGGGGGCCAGGAAGUUUGGACUGGGCAGAGCUCAACACAGCGUGGCAAAGUGGCUGUGGCUAGACUGCCUCUCUGGGUUCCUCGUCACUCAGCAGGGCAUCUCUGAGAGAAAUGCC", "self-cleavage": 1.42},
      {"variant": "UACGUAGGUGGUUUUCCCCUGAUAGUGCUAAGGGGGCCAGGAAGUUUGGACUGGGCAGAGCUCAACACAGCGUGGCAAAGUGGCUGUGGCUAGACUGCCUCUCUGGUUUCCUCGUCACUCAGCAGGGCAUCUCUGAGAGAAAUGCC", "self-cleavage": 1.43},
      {"variant": "UACGUAGGUGGUUUUCCCCUGAUAGUGCUAAGGGGGCCAGGAAGUUUGGACUGGGCAGAGCUCAUCACAGCGUGGCAAAGUGGCUGUGGCUAGACUGCCUCUCUGGAUUCCUCGUCACUCAGCAGGGCAUCUCUGAGAGAAAUGCC", "self-cleavage": 0.15},
      {"variant": "UACGUAGGUGGUUUUCCCCUGAUAGUGCUAAGGGGGCCAGGAAGUUUGGACUGGGCAGAGCUCAGCACAGCGUGGCAAAGUGGCUGUGGCUAGACUGCCUCUCUGGAUUCCUCGUCACUCAGCAGGGCAUCUCUGAGAGAAAUGCC", "self-cleavage": 0.05},
      {"variant": "UACGUAGGUGGUUUUCCCCUGAUAGUGCUAAGGGGGCCAGGAAGUUUGGACUGGGCAGAGCUCAACACAGCGUGGCAAAGUGGCUGUGGCUAGACUGCCUCUCUGGAUUCCUCGUCACUCAGCAGGGCUUCUCUGAGAGAAAUGCC", "self-cleavage": 1.65},
      {"variant": "UACGUAGGUGGUUUUCCCCUGAUAGUGCUAAGGGGGCCAGGAAGUUUGGACUGGGCAGAGCUCAACACAGCGUGGCAAAGUGGCUGUGGCUAGACUGCCUCUCUGGAUUCCUCGUCACUCAGCAGGGCGUCUCUGAGAGAAAUGCC", "self-cleavage": 1.27},
      {"variant": "UACGUAGGUGGUUUUCCCCUGAUAGUGCUAAGGGGGCCAGGAAGUUUGGACUGGGCAGAGCUCAACACAGCGUGGCAAAGUGGCUGUGGCUAGACUGCCUCUCUGGAUUCCUCGUCGCUCAGCAGGGCAUCUCUGAGAGAAAUGCC", "self-cleavage": 1.39},
      {"variant": "UACGUAGGUGGUUUUCCCCUGAUAGUGCUAAGGGGGCCAGGAAGUUUGGACUGGGCAGAGCUCAACGCAGCGUGGCAAAGUGGCUGUGGCUAGACUGCCUCUCUGGAUUCCUCGUCACUCAGCAGGGCAUCUCUGAGAGAAAUGCC", "self-cleavage": 0.43},
      {"variant": "UACGUAGGUGGUUUUCCCCUGAUAGUGCUAAGGGGGCCAGGAAGUUUGGACUGGGCAGAGCUCAACUCAGCGUGGCAAAGUGGCUGUGGCUAGACUGCCUCUCUGGAUUCCUCGUCACUCAGCAGGGCAUCUCUGAGAGAAAUGCC", "self-cleavage": 0.07},
      {"variant": "UACGUAGGUGGUUUUCCCCUGAUAGUGCUAAGGGGGCCAGGAAGUUUGGACUGGGCAGAGCUCAACACAGCGUGGCGAAGUGGCUGUGGCUAGACUGCCUCUCUGGAUUCCUCGUCACUCAGCAGGGCAUCUCUGAGAGAAAUGCC", "self-cleavage": 2.32},
      {"variant": "UACGUAGGUGGUUUUCCCCUGAUAGUGCUAAGGGGGCCAGGAAGUUUGGACUGGGCAGAGCUCAACACUGCGUGGCAAAGUGGCUGUGGCUAGACUGCCUCUCUGGAUUCCUCGUCACUCAGCAGGGCAUCUCUGAGAGAAAUGCC", "self-cleavage": 0.04},
      {"variant": "UACGUAGGUGGUUUUCCCCUGAUAGUGCUAAGGGGGCCAGGAAGUUUGGACUGGGCAGAGCUCAACACGGCGUGGCAAAGUGGCUGUGGCUAGACUGCCUCUCUGGAUUCCUCGUCACUCAGCAGGGCAUCUCUGAGAGAAAUGCC", "self-cleavage": 0.55},
      {"variant": "UACGUAGGUGGUUUUCCCCUGAUAGUGCUAAGGGGGCCAGGAAGUUUGGACUGGGCAGAGCUCAACACAGCGUGGCAAAGUGGCUGUGGCUUGACUGCCUCUCUGGAUUCCUCGUCACUCAGCAGGGCAUCUCUGAGAGAAAUGCC", "self-cleavage": 0.57},
      {"variant": "UACGUAGGUGGUUUUCCCCUGAUAGUGCUAAGGGGGCCAGGAAGUUUGGACUGGGCAGAGCUCAACACAGCGUGGCAAAGUGGCUGUGGCUGGACUGCCUCUCUGGAUUCCUCGUCACUCAGCAGGGCAUCUCUGAGAGAAAUGCC", "self-cleavage": 0.1},
      {"variant": "UACGUAGGUGGUUUUCCCCUGAUAGUGCUAAGGGGGCCAGGAAGUUUGGACUGGGCAGAGCUCAACACAGCGUGGCAUAGUGGCUGUGGCUAGACUGCCUCUCUGGAUUCCUCGUCACUCAGCAGGGCAUCUCUGAGAGAAAUGCC", "self-cleavage": 1.98},
      {"variant": "UACGUAGGUGGUUUUCCCCUGAUAGUGCUAAGGGGGCCAGGAAGUUUGGACUGGGCAGAGCUCAACACAGCGUGGCAGAGUGGCUGUGGCUAGACUGCCUCUCUGGAUUCCUCGUCACUCAGCAGGGCAUCUCUGAGAGAAAUGCC", "self-cleavage": 1.38},
      {"variant": "UACGUAGGUGGUUUUCCCCUGAUAGUGCUAAGGGGGCCAGGAAGUUUGGACUGGGCAGAGCUCAACACAGCGUGGCAAAGUGGCUGUGGCUAGACUGCCUCUCUGGAUUCCUCGUCACUCAGCAGGGCAUCUCUGAGUGAAAUGCC", "self-cleavage": 1.75},
      {"variant": "UACGUAGGUGGUUUUCCCCUGAUAGUGCUAAGGGGGCCAGGAAGUUUGGACUGGGCAGAGCUCAACACAGCGUGGCAAAGUGGCUGUGGCUAGACUGCCUCUCUGGAUUCCUCGUCACUCAGCAGGGCAUCUCUGAGGGAAAUGCC", "self-cleavage": 1.27}
    ]}
  ]
}
